Reference: US20250195556A1, “COMPOSITIONS, KITS, AND METHODS TO INDUCE ACQUIRED CYTORESISTANCE USING STRESS PROTEIN INDUCERS” (FRED HUTCHINSON CANCER RESEARCH CENTER, priority 2014, published 2025)

Assays:
HK-2 cells = assay: Myoglobin toxicity in HK-2 cells, MTT assay; assay type: cell-based; settings: equimolar Na nitrite, 10 mg/ml, 18 hr
Method: Example 3. […] HK-2 cells (a proximal tubule cell line derived from normal human kidney) were incubated in keratinocyte serum free medium either under normal (control) conditions or in the presence of 10 mg/mL horse skeletal muscle myoglobin or nitrited myoglobin (produced by equimolar Na nitrite addition to 10 mg/ml myoglobin). After 18 hr incubations, the severity of cell injury (% cell death) was assessed by MTT assay. Myoglobin induced 40% cell death (40% decrease in MTT cell uptake), compared to control incubated cells. Nitrite binding to myoglobin reduced cell death by 75%. Thus, nitrite binding is able to reduce myoglobin's cytotoxic effects.

[1] = Serum creatinine after 2 hr subcutaneous infusion of nitrited myoglobin + SnPP; assay type: in vivo, mice; settings: 2 hr subcutaneous infusion of 1, 3, 6, 12, or 25 mg/Kg + 1 μmole SnPP; 18 hrs later
Method: Mice were subjected to a 2 hr subcutaneous infusion of 1, 3, 6, 12, or 25 mg/Kg of nitrited myoglobin (holding SnPP at a constant dose of 1 μmole). Eighteen hrs later, potential renal injury was assessed by measuring serum creatinine concentrations.
An obvious concern by applying this prophylactic strategy to patients is potential renal and/or extrarenal toxicities. […] Furthermore, it was previously documented in a cell culture system that nitrite addition markedly reduces myoglobin's cytotoxic effects by 75% (unpublished data, 2014). To assess the potential in vivo margin of safety for N-Mgb+SnPP (see Supplemental FIGs.), the maximal amount of N-Mgb that could be given to mice before nephrotoxicity was observed was tested. Up to 25 times the employed N-Mgb dose (with a constant SnPP dose) could be administered (over 2 hours) without induction of nephrotoxicity (normal BUN and creatinine, 18 hours later).

HO-1 [2] = assay: Renal cortical HO-1 mRNA and protein after IV N-Mgb, SnPP or both; assay type: in vivo, mice
Source text: (§1) Cytoresistance-inducing reagents. […] (#Mb0360; Sigma) was used as the primary cytoresistance-inducing agent. However, because myoglobin (Mgb) has an inherent nephrotoxic potential (particularly under conditions of volume depletion and aciduria), two approaches were used to mitigate Mgb's potential adverse effects. First, the Mgb was converted into a nitrited form by the addition of equimolar amount of sodium (Na) nitrite. In this regard, nitrite is an ambidentate molecule that directly binds 1:1 to myoglobin Fe either via its oxygen or nitrogen component. Cotton et al. Advanced inorganic chemistry. Hobocken, NJ: Wiley-Interscience, 1999:1355; Silaghi-Dumitrescu et al. Nitric Oxide 2014; 42 C: 32-9. […] Rassaf et al. Circ Res 2014; 114:1601-10; Totzeck et al. Circulation 2012; 126:325-34 [J Clin Invest 1992; 89:989-95]; Totzeck et al. PLOS One 2014; 22: e105951; Hendgen-Cotta et al. Proc Natl Acad Sci USA 2008; 105:10256-61.
(§2) Thirty-two mice were divided into 4 equal groups: (1) control mice; (2) mice treated with 1 mg of N-Mgb injection (as a bolus through the tail vein); (3) mice treated with […] of SnPP (via tail vein); and (4) mice treated with combined N-Mgb 1 SnPP. After either 4 hours (n=16) or 18 hours (n=16), the mice were deeply anesthetized with pentobarbital (50 mg/kg), the abdomen was opened through a midline abdominal incision, and the kidneys were removed. To determine potential effects on extrarenal organs, a liver lobe and the heart were also removed. The tissues were iced and then extracted for protein and RNA (RNeasy Plus Mini; Qiagen, Valencia, California) and subjected to enzyme linked immunosorbent assay (ELISA) and reverse transcriptase polymerase chain reaction (RT-PCR) for HO-1, haptoglobin, and IL-10 protein and messenger RNAs (mRNAs). Zager et al. J Am Soc Nephrol 2014; 25:998-1012; Zager et al. Am J Physiol 2012; 303: F139-48. As an assessment of renal function, control mice and the 18 hour after N-Mgb+SnPP-treated mice had blood urea nitrogen (BUN) and plasma creatinine levels measured. Additionally, transverse 10% formalin fixed kidney sections ([…]) were cut and stained with hematoxylin and eosin (H&E) and periodic acid Schiff (PAS) to further assess potential injury.

haptoglobin [3] = assay: Renal cortical haptoglobin mRNA and protein after IV N-Mgb, SnPP or both; assay type: in vivo, mice
Source text: as §1, §2

IL-10 [4] = assay: Renal cortical IL-10 mRNA and protein after IV N-Mgb, SnPP or both; assay type: in vivo, mice; settings: for Kidney protein: IL-10: control 304
Source text: as §1, §2

Male CD-1 mice = assay: Glycerol model of rhabdomyolysis-induced AKI (Example 4); assay type: in vivo; settings: IV pretreatment 18 hours before glycerol; 18 hours after glycerol
Method: Assessments of cytoresistance. Glycerol model of rhabdomyolysis-induced AKI. Twenty mice were divided into 4 equal groups (controls, mice treated with N-Mgb, SnPP, and mice treated with N-Mgb+SnPP tail vein injections) as described previously. 18 hours later, the mice were briefly anesthetized with isoflurane and immediately injected with 9 mL/kg of 50% glycerol, administered in equally divided doses into each hind limb. At 18 hours after glycerol injection, the mice were anesthetized with pentobarbital, the abdomen was opened, a blood sample for BUN and creatinine assessments was obtained from the vena cava, and the kidneys were resected. The control post-glycerol group and the N-Mgb+SnPP-pretreated glycerol group had kidney sections stained with H&E.
Calculations and statistics. All values are given as the mean […] standard error of the mean. Statistical comparisons were made by unpaired Student's t test. If multiple comparisons were made, the Bonferroni correction was applied. The severity of renal histologic injury in the glycerol AKI model was graded on a […] (least to most severe tubular necrosis and cast formation observed). The histologic results were compared by Wilcoxon rank sum test. Statistical significance was taken as a P value of <0.05.

HO-1 [5] = assay: Liver HO-1 mRNA and protein after IV N-Mgb, SnPP or both; assay type: in vivo, mice; settings: for Liver mRNA: HO-1: control 1.1; for Liver protein: HO-1 protein: control 10.2
Method: as §2

haptoglobin [6] = assay: Liver haptoglobin mRNA and protein after IV N-Mgb, SnPP or both; assay type: in vivo, mice; design: Liver protein: Haptoglobin: unit not given beside the values; settings: for Liver mRNA: Haptoglobin: control 0.5; for Liver protein: Haptoglobin: control 115.3
Method: as §2

IL-10 [7] = assay: Liver IL-10 mRNA and protein after IV N-Mgb, SnPP or both; assay type: in vivo, mice; settings: for Liver mRNA: IL-10: control 0.06; for Liver protein: IL-10: control 314
Method: as §2

HO-1 [8] = assay: Cardiac HO-1 mRNA and protein after IV N-Mgb, SnPP or both; assay type: in vivo, mice; settings: for Cardiac mRNA: HO-1: control 0.07
Method: as §2

haptoglobin [9] = assay: Cardiac haptoglobin mRNA and protein after IV N-Mgb, SnPP or both; assay type: in vivo, mice; settings: for Cardiac mRNA: Haptoglobin: control 0.31; for Cardiac protein: Haptoglobin: control 15.6
Method: as §2

IL-10 [10] = assay: Cardiac IL-10 mRNA and protein after IV N-Mgb, SnPP or both; assay type: in vivo, mice; settings: for Cardiac mRNA: IL-10: control 0.36
Method: as §2

[11] = read-out: affinity to heme (KD); cited from earlier work

B1: N-Mgb: horse skeletal muscle myoglobin converted into a nitrited form by addition of equimolar sodium nitrite (protein, UniProt P68082 2-154, looked up)
Myoglobin: GLSDGEWQQVLNVWGKVEADIAGHGQEVLIRLFTGHPETLEKFDKFKHLKTEAEMKASEDLKKHGTVVLTALGGILKKKGHHEAELKPLAQSHATKHKIPIKYLEFISDAIIHVLHSKHPGDFGADAQGAMTKALELFRNDIAAKYKELGFQG
modifications: nitrited with sodium nitrite
- Reduction of myoglobin-induced cell death by nitrite binding (HK-2 cells): 75%
- Serum creatinine concentrations [1]: No significant increase
- Kidney mRNA: HO-1 (HO-1 [2]; 4 h after Rx, control 0.61): 3.38 ± 0.38
- Kidney HO-1 protein (HO-1 [2]; 4 h after Rx, control 13.3): 36.1 ± 2.9
- Kidney mRNA cortex: HO-1 (HO-1 [2]; 18 h after Rx, control 0.61): 0.58 ± 0.18
- Kidney protein: HO-1 (HO-1 [2]; 18 h after Rx, control 13.3): 30 ± 6
- Kidney mRNA: Haptoglobin (haptoglobin [3]; 4 h after Rx, control 0.20): 1.94 ± 0.31
- Kidney protein: Haptoglobin (haptoglobin [3]; 4 h after Rx, control 7.9): 17.6 ± 1^
- Kidney mRNA cortex: Haptoglobin (haptoglobin [3]; 18 h after Rx, control 0.20): 0.24 ± 0.04
- Kidney protein: Haptoglobin (haptoglobin [3]; 18 h after Rx, control 10.3): 183.8 ± 20.4
- Kidney mRNA: IL-10 (IL-10 [4]; 4 h after Rx, control 0.56): 1.45 ± 0.6
- Kidney protein: IL-10 (IL-10 [4]; 4 h after Rx): 265 ± 54
- Kidney mRNA cortex: IL-10 (IL-10 [4]; 18 h after Rx, control 0.56): 0.43 ± 0.10
- Kidney protein: IL-10 (IL-10 [4]; 18 h after Rx): 292 ± 54
- Protection against glycerol-induced AKI (BUN/creatinine levels) (Male CD-1 mice): modest protection
- Liver mRNA: HO-1 (HO-1 [5]; 4 h after Rx): 1.83 ± 0.33
- Liver protein: HO-1 protein (HO-1 [5]; 4 h after Rx): 17 ± 2
- Liver mRNA: HO-1 (HO-1 [5]; 18 h after Rx): 0.82 ± 0.07
- Liver protein: HO-1 protein (HO-1 [5]; 18 h after Rx): 14.9 ± 0.3
- Liver mRNA: Haptoglobin (haptoglobin [6]; 4 h after Rx): 0.98 ± 0.1
- Liver protein: Haptoglobin (haptoglobin [6]; 4 h after Rx): 359.5 ± 39.6
- Liver mRNA: Haptoglobin (haptoglobin [6]; 18 h after Rx): 0.91 ± 0.07
- Liver protein: Haptoglobin (haptoglobin [6]; 18 h after Rx): 358.8 ± 32.8
- Liver mRNA: IL-10 (IL-10 [7]; 4 h after Rx): 0.67 ± 0.46
- Liver protein: IL-10 (IL-10 [7]; 4 h after Rx): 286 ± 32
- Liver mRNA: IL-10 (IL-10 [7]; 18 h after Rx): 0.06 ± 0.02
- Liver protein: IL-10 (IL-10 [7]; 18 h after Rx): 5988 ± 549
- Cardiac mRNA: HO-1 (HO-1 [8]; 4 h after Rx): 0.09 ± 0.01
- Cardiac protein: HO-1 (HO-1 [8]; 4 h after Rx, control 1.50): 1.64 ± 0.19
- Cardiac mRNA: HO-1 (HO-1 [8]; 18 h after Rx): 0.08 ± 0.01
- Cardiac mRNA: Haptoglobin (haptoglobin [9]; 4 h after Rx): 0.75 ± 0.10
- Cardiac protein: Haptoglobin (haptoglobin [9]; 4 h after Rx): 40.4 ± 8.6
- Cardiac mRNA: Haptoglobin (haptoglobin [9]; 18 h after Rx): 0.53 ± 0.21
- Cardiac protein: Haptoglobin (haptoglobin [9]; 18 h after Rx): 249.6 ± 15.0
- Cardiac mRNA: IL-10 (IL-10 [10]; 4 h after Rx): 0.86 ± 0.11
- Cardiac protein: IL-10 (IL-10 [10]; 4 h after Rx, control 8.1): 21 ± 12
- Cardiac mRNA: IL-10 (IL-10 [10]; 18 h after Rx): 0.67 ± 0.10
- Cardiac protein: IL-10 (IL-10 [10]; 18 h after Rx, control 8): 14.5 ± 10^

B2: Hemopexin: 60 kDa plasma protein that sequesters free heme; protective stress protein (background) (protein, listed as Homo sapiens)
chain: MARVLGAPVALGLWSLCWSLAIATPLPPTSAHGNVAEGETKPDPDVTERCSDGWSFDATTLDDNGTMLFFKGEFVWKSHKWDRELISERWKNFPSPVDAAFRQGHNSVFLIKGDKVWVYPPEKKEKGYPKLLQDEFPGIPSPLDAAVECHRGECQAEGVLFFQGDREWFWDLATGTMKERSWPAVGNCSSALRWLGRYYCFQGNQFLRFDPVRGEVPPRYPRDVRDYFMPCPGRGHGHRNGTGHGNSTHHGPEYMRCSPHLVLSALTSDNHGATYAFSGTHYWRLDTSRDGWHSWPIAHQWPQGPSAVDAAFSWEEKLYLVQGTQVYVFLTKGGYTLVSGYPKRLEKEVGTPHGIILDSVDAAFICPGSSRLHIMAGRRLWWLDLKSGAQATWTELPWPHEKVDGALCMEKSLGPNSCSANGPGLYLIHGPNLYCYSDVEKLNAAKALPQPQNVTSLLGCTH
- Kd [11]: < 1 pM
